B1: SEQ ID NO: 22098: FHVH attached to TCRg-6MD via IgCL linker and second FHVH attached to TCRd-6MD via IgG1-CH1 linker (protein)
chain: MALPVTALLLPLALLLHAARPQVQLVESGGGLVQPGGSLRLSCAASGFTFTNHAMSWVRQAPGKGLELVSSISGNGRTTYYADSVKGRFTISRDISKNTLDLQMNSLRAEDTAVYYCAKDGGETLVDSRGQGTLVTVSSLEGQPKANPTVTLFPPSSEELQANKATLVCLISDFYPGAVTVAWKADGSPVKAGVETTKPSKQSNNKYAASSYLSLTPEQWKSHRSYSCQVTHEGSTVEKTVAPTECSPIKTDVITMDPKDNCSKDANDTLLLQLTNTSAYYMYLLLLLKSVVYFAIITCCLLRRTAFCCNGEKSRAKRSGSGATNFSLLKQAGDVEENPGPTSMDWIWRILFLVGAATGAHSFEEVQLLESGGGLVQPGGSLRLSCAASGFTFSSYAMSWVRQAPGKGLEWVSSISGSGDYIYYADSVKGRFTISRDISKNTLYLQMNSLRAEDTAVYYCAKEGTGANSSLADYRGQGTLVTVSSTRASTKGPSVFPLAPSSKSTSGGTAALGCLVKDYFPEPVTVSWNSGALTSGVHTFPAVLQSSGLYSLSSVVTVPSSSLGTQTYICNVNHKPSNTKVDKRVEPKSCEVKTDSTDHVKPKETENTKQPSKSCHKPKAIVHTEKVNMMSLTVLGLRMLFAKTVAVNFLLTAKLFFLRAKRSGSGVKQTLNFDLLKLAGDVESNPGPSRGHMTEYKPTVRLATRDDVPRAVRTLAAAFADYPATRHTVDPDRHIERVTELQELFLTRVGLDIGKVWVADDGAAVAVWTTPESVEAGAVFAEIGPRMAELSGSRLAAQQQMEGLLAPHRPKEPAWFLATVGVSPDHQGKGLGSAVVLPGVEAAERAGVPAFLETSAPRNLPFYERLGFTVTADVEVPEGPRTWCMTRKPGA
B2: CD8SP-BCMA-FHVH-93-G4S-CD19-MOR0028-scFv-hCD8TM-BBZ-T2A-PAC (protein)
chain: MALPVTALLLPLALLLHAARPACEVQLLESGGGLIQPGGSLRLSCAASGFTFSSHAMTWVRQAPGKGLEWVSAISGSGDYTHYADSVKGRFTISRDNSKNTVYLQMNSLRAEDSAVYYCAKDEDGGSLLGHRGQGTLVTVSSGTGGGGSGGGGSGGGGSEFINIYNAEPANPSEKNSPEFDIVMTQSPATLSLSPGERATLSCRSSKSLQNVNGNTYLYWFQQKPGQSPQLLIYRMSNLNSGVPDRFSGSGSGTEFTLTISSLEPEDFAVYYCMQHLEYPITFGAGTKLEIKGGGGSGGGGSGGGGSEVQLVESGGGLVKPGGSLKLSCAASGYTFTSYVMHWVRQAPGKGLEWIGYINPYNDGTKYNEKFQGRVTISSDKSISTAYMELSSLRSEDTAMYYCARGTYYYGTRVFDYWGQGTLVTVSSTRTTTPAPRPPTPAPTIASQPLSLRPEACRPAAGGAVHTRGLDFACDIYIWAPLAGTCGVLLLSLVITLYCKRGRKKLLYIFKQPFMRPVQTTQEEDGCSCRFPEEEEGGCELRVKFSRSADAPAYQQGQNQLYNELNLGRREEYDVLDKRRGRDPEMGGKPRRKNPQEGLYNELQKDKMAEAYSEIGMKGERRRGKGHDGLYQGLSTATKDTYDALHMQALPPRSSGSGEGRGSLLTCGDVEENPGPHMTEYKPTVRLATRDDVPRAVRTLAAAFADYPATRHTVDPDRHIERVTELQELFLTRVGLDIGKVWVADDGAAVAVWTTPESVEAGAVFAEIGPRMAELSGSRLAAQQQMEGLLAPHRPKEPAWFLATVGVSPDHQGKGLGSAVVLPGVEAAERAGVPAFLETSAPRNLPFYERLGFTVTADVEVPEGPRTWCMTRKPGA
B3: SEQ ID NO: 22099: FHVH attached to TCRa-wt2-opt-6MD via IgCL linker and second FHVH attached to TCRb-wt2-opt-6MD via IgG1-CH1 linker (protein)
chain: MALPVTALLLPLALLLHAARPQVQLVESGGGLVQPGGSLRLSCAASGFTFTNHAMSWVRQAPGKGLELVSSISGNGRTTYYADSVKGRFTISRDISKNTLDLQMNSLRAEDTAVYYCAKDGGETLVDSRGQGTLVTVSSLEGQPKANPTVTLFPPSSEELQANKATLVCLISDFYPGAVTVAWKADGSPVKAGVETTKPSKQSNNKYAASSYLSLTPEQWKSHRSYSCQVTHEGSTVEKTVAPTECSGRADCGFTSESYQQGVLSATILYEILLGKATLYAVLVSALVLMAMVKRKDSRGRAKRSGSGATNFSLLKQAGDVEENPGPTSMDWIWRILFLVGAATGAHSFEEVQLLESGGGLVQPGGSLRLSCAASGFTFSSYAMSWVRQAPGKGLEWVSSISGSGDYIYYADSVKGRFTISRDISKNTLYLQMNSLRAEDTAVYYCAKEGTGANSSLADYRGQGTLVTVSSTRASTKGPSVFPLAPSSKSTSGGTAALGCLVKDYFPEPVTVSWNSGALTSGVHTFPAVLQSSGLYSLSSVVTVPSSSLGTQTYICNVNHKPSNTKVDKRVEPKSCIPEDTFFPSPESSCDVKLVEKSFETDTNLNFQNLSVIGFRILLLKVAGFNLLMTLRLWSSRAKRSGSGVKQTLNFDLLKLAGDVESNPGPSRGHMTEYKPTVRLATRDDVPRAVRTLAAAFADYPATRHTVDPDRHIERVTELQELFLTRVGLDIGKVWVADDGAAVAVWTTPESVEAGAVFAEIGPRMAELSGSRLAAQQQMEGLLAPHRPKEPAWFLATVGVSPDHQGKGLGSAVVLPGVEAAERAGVPAFLETSAPRNLPFYERLGFTVTADVEVPEGPRTWCMTRKPGA
B4: 22195 (protein)
chain: MALPVTALLLPLALLLHAARPDIQMTQSPSSLSASVGDRVTITCKASDHINNWLAWYQQKPGQAPKLLIYGATTLETGVPSRFSGSGSGTDYTLTISSLQPEDFATYYCQQSWNTPWTFGQGTKLEIKRLEDLKNVFPPEVAVFEPSEAEISHTQKATLVCLATGFYPDHVELSWWVNGKEVHSGVCTDPQPLKEQPALNDSRYCLSSRLRVSATFWQNPRNHFRCQVQFYGLSENDEWTQDRAKPVTQIVSAEAWGRADCGFTSESYQQGVLSATILYEILLGKATLYAVLVSALVLMAMVKRKDSRGRAKRSGSGATNFSLLKQAGDVEENPGPTSATMDWIWRILFLVGAATGAHSGPGSDLGIKLLFAAAKGQDDEVRILLAAGADVNAKDFEGYTPLHVAAYDGHLEIVEVLLKAGADVNAKDSQGRTPLHEAAYSGHLEIVEVLLKAGADVNAQDDAGETPADLAAAWGHEDIAEVLQKGSGGGGSGGGGSGGGGSFEQVQLQQPGAELVKPGASVKMSCKASGYAFSSYWINWMKQKPGQGLEWIGQIYPGDGDTNYNGKFKGRATLTADTSSSTAYMQLSSLTSEDSAVYFCARSITTVVGCAMDYWGQGTSVTVSSTRIQNPDPAVYQLRDSKSSDKSVCLFTDFDSQTNVSQSKDSDVYITDKCVLDMRSMDFKSNSAVAWSNKSDFACANAFNNSIIPEDTFFPSPESSCDVKLVEKSFETDTNLNFQNLSVIGFRILLLKVAGFNLLMTLRLWSSRAKRSGSGVKQTLNFDLLKLAGDVESNPGPSRGHMTEYKPTVRLATRDDVPRAVRTLAAAFADYPATRHTVDPDRHIERVTELQELFLTRVGLDIGKVWVADDGAAVAVWTTPESVEAGAVFAEIGPRMAELSGSRLAAQQQMEGLLAPHRPKEPAWFLATVGVSPDHQGKGLGSAVVLPGVEAAERAGVPAFLETSAPRNLPFYERLGFTVTADVEVPEGPRTWCMTRKPGA
B5: 22197 (protein)
chain: B4 chain

Columns and labels:
Assay type in all cases: cell-based
[1] = tested on: target antigen-expressing cell line; assay: Jurkat NFAT-GFP (JNG) assay: induction of NFAT promoter driven GFP expression; conditions: SAR-expressing JNG cells co-cultured with cell lines expressing their target antigen(s)
Protocol: Induction ofNFAT promoter driven GFP expression. […] Cellular supernatant is collected and assayed for the induction of cytokines (e.g., IL2).
(§1) Cellular supernatant is collected and assayed for the induction of cytokines (e.g., IL2).
(§2) JNG (Jurkat cells expressing EGFP under an NFAT promoter) were infected with lentiviral vectors encoding different single chain and multi-chain SARs by spinfection in the presence of 8 µg/ml of Polybrene® (Sigma, Catalog no. H9268). The Jurkat-NFAT-GFP cells are engineered in such a way that the IL-2 promoter, which carries NFAT binding sites, is cloned upstream of the GFP gene. These cells have been used to study signaling via TCR and CAR. The different SARs were stably expressed in Jurkat NFAT-GFP cells by lentiviral mediated gene transfer, followed by selection with puromycin or blasticidin. No drug selection was used in case the construct lacked an antibiotic resistance gene. The SAR-expressing Jurkat-NFAT-GFP cells were cocultured with the target cells at E:T ratio of approximately 1:2 for approximately 4 hours to 18 hours. When the interaction between SIRs and their target antigen results in activation of the NFAT pathway, GFP expression is induced. […] GFP expression was monitored by FACS analysis. The Jurkat-NFAT-GFP (parental) cells were used as control. The structure of different constructs can be determined based on their names. […] The sequence of the other constructs in the table can be similarly determined from their names and by referring to the different Tables of this disclosure that provide the names and SEQ ID NO of the different modules. Alternatively, the composition and modular architecture of the different SAR constructs can be determined from their sequences by bioinformatics tools, including using nucleic acid and amino acids homology searches. A SAR is considered positive in the assay in case the SAR expressing Jurkat-NFAT-GFP cells show greater % GFP positive cells when cultured with the target cell line as compared to parental Jurkat-NFAT-GFP cells. […] In general, the number +/-, +, 2+, 3+, 4+, 5+ refer to approximately 5%, 10%, 20%, 30%, 40% and 50% GFP positive cells. The % of GFP induction in the above assay is dependent not only the relative strength of the SAR but also, among other factors, on the relative level of expression of the SAR in the JNG cells and the relative level of expression of the target antigen in the target cell line. To control for the difference in gene transduction efficiency of the different SAR constructs, the experiment was conducted with JNG cells transduced with SAR constructs co-expressing a drug resistance gene (e.g., puromycin or PAC) followed by drug selection to generate a stable population of SAR-expressing cells. It is to be noted that the drug resistance gene (e.g., PAC) in the SAR constructs is optional and in vivo studies were conducted with SAR constructs lacking the PAC gene.

RAJI cells = assay: JNG assay, co-culture with RAJI cells; conditions: for NFAT-GFP ASSAY: Raji: JNG cells expressing construct, co-culture with Raji
How it was run: (§3)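 Jurkat NFAT-GFP (JNG) cells stably transduced with SARs by lentivirus, with drug selection where the construct carried a resistance gene, then co-cultured with target cells at E:T ~1:2 for ~4–18 h. % GFP-positive cells measured by FACS against parental JNG; +/- to 5+ correspond to ~5–50% GFP-positive.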

RAJI-CD19-KO cells = assay: JNG assay, co-culture with RAJI-CD19-KO cells; conditions: co-culture with RAJI-CD19-KO cells
How it was run: as §3

SKOV-3 cells = assay: JNG assay, co-culture with SKOV-3 cells; conditions: co-culture with SKOV-3
Protocol: as §1, §2

Molecule	GFP induction / activity in JNG assay [1]	GFP induction / activity (RAJI cells; co-culture with RAJI cells)	GFP induction / activity (RAJI-CD19-KO cells)	NFAT-GFP ASSAY: Raji (RAJI cells)	NFAT-GFP ASSAY: SKOV-3 (SKOV-3 cells)
B1	best activity				
B2	effective GFP induction	effective GFP induction	effective GFP induction		
B3	good activity				
B4				4+ (refer to approximately 5%, 10%, 20%, 30%, 40% and 50% GFP positive cells)	4+ (refer to approximately 5%, 10%, 20%, 30%, 40% and 50% GFP positive cells)
B5				2+ (refer to approximately 5%, 10%, 20%, 30%, 40% and 50% GFP positive cells)	5+ (refer to approximately 5%, 10%, 20%, 30%, 40% and 50% GFP positive cells)
